Assay results: the supplement of paper PMC10567573

B1: DVL3 (parent)
chain: FCADNPSELPPPMERTGGIGDSRP
B2: KIAA1161 (parent)
chain: FMPAMQFSIPPWRYDAEVVAIAQK

Variants of: B1
Assay: protein stability index of a GFP-peptide fusion (GPS, HEK-293T) (PSI 1-6); higher = more stable
Conditions: c terminus: a fixed tail appended
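Also: lentivirally expressed fusions sorted by FACS into six bins by GFP to DsRed ratio, PSI derived from sequencing read proportions per bin multiplied by bin number.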

Variant	protein stability index
FCMDNPSELPPPMERTGGIGDSRP [A3M]	4.48
FCNDNPSELPPPMERTGGIGDSRP [A3N]	4.79
FCSDNPSELPPPMERTGGIGDSRP [A3S]	4.81
FCDDNPSELPPPMERTGGIGDSRP [A3D]	5.11
FCCDNPSELPPPMERTGGIGDSRP [A3C]	4.13
FCQDNPSELPPPMERTGGIGDSRP [A3Q]	3.45
FCPDNPSELPPPMERTGGIGDSRP [A3P]	4.17
FCTDNPSELPPPMERTGGIGDSRP [A3T]	4.29
FCVDNPSELPPPMERTGGIGDSRP [A3V]	4.78
FCIDNPSELPPPMERTGGIGDSRP [A3I]	4.25
FCEDNPSELPPPMERTGGIGDSRP [A3E]	5.23
FCYDNPSELPPPMERTGGIGDSRP [A3Y]	4.49
FCFDNPSELPPPMERTGGIGDSRP [A3F]	3.56
FCKDNPSELPPPMERTGGIGDSRP [A3K]	4.34
FCWDNPSELPPPMERTGGIGDSRP [A3W]	3.64
FCHDNPSELPPPMERTGGIGDSRP [A3H]	4.37
FRADNPSELPPPMERTGGIGDSRP [C2R]	4.58
FDADNPSELPPPMERTGGIGDSRP [C2D]	5.46
FFADNPSELPPPMERTGGIGDSRP [C2F]	4.31
FAADNPSELPPPMERTGGIGDSRP [C2A]	4.77
FYADNPSELPPPMERTGGIGDSRP [C2Y]	4.75
FPADNPSELPPPMERTGGIGDSRP [C2P]	4.73
FKADNPSELPPPMERTGGIGDSRP [C2K]	4.68

Variant	protein stability index
FSADNPSELPPPMERTGGIGDSRP [C2S]	5
FIADNPSELPPPMERTGGIGDSRP [C2I]	4.71
FLADNPSELPPPMERTGGIGDSRP [C2L]	5
FWADNPSELPPPMERTGGIGDSRP [C2W]	3.44
FVADNPSELPPPMERTGGIGDSRP [C2V]	3.27
FNADNPSELPPPMERTGGIGDSRP [C2N]	4.43
FTADNPSELPPPMERTGGIGDSRP [C2T]	5.06
FGADNPSELPPPMERTGGIGDSRP [C2G]	4.83
FHADNPSELPPPMERTGGIGDSRP [C2H]	4.36
FMADNPSELPPPMERTGGIGDSRP [C2M]	4.71
FCAFNPSELPPPMERTGGIGDSRP [D4F]	3.08
FCARNPSELPPPMERTGGIGDSRP [D4R]	4.36
FCAKNPSELPPPMERTGGIGDSRP [D4K]	2.85
FCAENPSELPPPMERTGGIGDSRP [D4E]	5
FCASNPSELPPPMERTGGIGDSRP [D4S]	4.25
FCANNPSELPPPMERTGGIGDSRP [D4N]	3.96
FCAHNPSELPPPMERTGGIGDSRP [D4H]	4.27
FCAMNPSELPPPMERTGGIGDSRP [D4M]	3.26
FCATNPSELPPPMERTGGIGDSRP [D4T]	4.29
FCAYNPSELPPPMERTGGIGDSRP [D4Y]	3.98
FCAVNPSELPPPMERTGGIGDSRP [D4V]	3.79
FCAWNPSELPPPMERTGGIGDSRP [D4W]	2.06
FCAQNPSELPPPMERTGGIGDSRP [D4Q]	3.36

Variant	protein stability index
FCALNPSELPPPMERTGGIGDSRP [D4L]	3.83
FCAANPSELPPPMERTGGIGDSRP [D4A]	4.19
FCAINPSELPPPMERTGGIGDSRP [D4I]	3.71
FCAGNPSELPPPMERTGGIGDSRP [D4G]	4.37
FCADNPSELGPPMERTGGIGDSRP [P10G]	4.13
FCADNPSELDPPMERTGGIGDSRP [P10D]	4.81
FCADNPSELCPPMERTGGIGDSRP [P10C]	3.81
FCADNPSELEPPMERTGGIGDSRP [P10E]	2.94
FCADNPSELHPPMERTGGIGDSRP [P10H]	4.3
FCADNPSELAPPMERTGGIGDSRP [P10A]	4.29
FCADNPSELIPPMERTGGIGDSRP [P10I]	3.81
FCADNPSELFPPMERTGGIGDSRP [P10F]	3.41
FCADNPSYLPPPMERTGGIGDSRP [E8Y]	3.25
FCADNPSPLPPPMERTGGIGDSRP [E8P]	4.14
FCADNPSCLPPPMERTGGIGDSRP [E8C]	4.06
FCADNPSRLPPPMERTGGIGDSRP [E8R]	3.05
FCADNPSSLPPPMERTGGIGDSRP [E8S]	4.63
FCADNPSTLPPPMERTGGIGDSRP [E8T]	4.02
FCADNPSHLPPPMERTGGIGDSRP [E8H]	3.95
FCADNPSNLPPPMERTGGIGDSRP [E8N]	4.26
FCADNPSWLPPPMERTGGIGDSRP [E8W]	2.03
FCADNPSGLPPPMERTGGIGDSRP [E8G]	4.37
FCADNPSALPPPMERTGGIGDSRP [E8A]	4.36

Variant	protein stability index
FCADNPSMLPPPMERTGGIGDSRP [E8M]	3.49
FCADNPSQLPPPMERTGGIGDSRP [E8Q]	2.77
FCADNPSDLPPPMERTGGIGDSRP [E8D]	4.39
FCADNPSFLPPPMERTGGIGDSRP [E8F]	2.6
FCADNPSKLPPPMERTGGIGDSRP [E8K]	3.47
FCADNPSILPPPMERTGGIGDSRP [E8I]	3.88
FCADNPSLLPPPMERTGGIGDSRP [E8L]	3.67
FCADNRSELPPPMERTGGIGDSRP [P6R]	4.19
FCADNWSELPPPMERTGGIGDSRP [P6W]	2.33
FCADNYSELPPPMERTGGIGDSRP [P6Y]	4.27
FCADNASELPPPMERTGGIGDSRP [P6A]	4.71
FCADNKSELPPPMERTGGIGDSRP [P6K]	4.33
FCADNMSELPPPMERTGGIGDSRP [P6M]	3.8
FCADNQSELPPPMERTGGIGDSRP [P6Q]	4.95
FCADNNSELPPPMERTGGIGDSRP [P6N]	4.61
FCADNLSELPPPMERTGGIGDSRP [P6L]	3.88
FCADNGSELPPPMERTGGIGDSRP [P6G]	3.85
FCADNTSELPPPMERTGGIGDSRP [P6T]	3.99
FCADNDSELPPPMERTGGIGDSRP [P6D]	4.03
FCADNHSELPPPMERTGGIGDSRP [P6H]	4.08
FCADNVSELPPPMERTGGIGDSRP [P6V]	4.27
FCADNESELPPPMERTGGIGDSRP [P6E]	4.64
FCADNFSELPPPMERTGGIGDSRP [P6F]	4.38

Variant	protein stability index
FCADNISELPPPMERTGGIGDSRP [P6I]	3.73
FCADNSSELPPPMERTGGIGDSRP [P6S]	3.95
FCADNPTELPPPMERTGGIGDSRP [S7T]	4.22
FCADNPEELPPPMERTGGIGDSRP [S7E]	5.11
FCADNPVELPPPMERTGGIGDSRP [S7V]	4.14
FCADNPIELPPPMERTGGIGDSRP [S7I]	4.19
FCADNPCELPPPMERTGGIGDSRP [S7C]	3.85
FCADNPAELPPPMERTGGIGDSRP [S7A]	4.57
FCADNPGELPPPMERTGGIGDSRP [S7G]	4.01
FCADNPYELPPPMERTGGIGDSRP [S7Y]	3.81
FCADNPMELPPPMERTGGIGDSRP [S7M]	4.3
FCADNPNELPPPMERTGGIGDSRP [S7N]	4.45
FCADNPKELPPPMERTGGIGDSRP [S7K]	4.98
FCADNPRELPPPMERTGGIGDSRP [S7R]	3.58
FCADNPLELPPPMERTGGIGDSRP [S7L]	4.57
FCADNPFELPPPMERTGGIGDSRP [S7F]	4.24
FCADNPDELPPPMERTGGIGDSRP [S7D]	5.04
FCADNPSEYPPPMERTGGIGDSRP [L9Y]	4.11
FCADNPSEKPPPMERTGGIGDSRP [L9K]	4.66
FCADNPSESPPPMERTGGIGDSRP [L9S]	4.99
FCADNPSEQPPPMERTGGIGDSRP [L9Q]	4.16
FCADNPSEHPPPMERTGGIGDSRP [L9H]	4.66
FCADNPSEIPPPMERTGGIGDSRP [L9I]	4.53

Variant	protein stability index
FCADNPSENPPPMERTGGIGDSRP [L9N]	5.1
FCADNPSEVPPPMERTGGIGDSRP [L9V]	4.82
FCADNPSEEPPPMERTGGIGDSRP [L9E]	5.34
FCADNPSECPPPMERTGGIGDSRP [L9C]	4.79
FCADNPSEFPPPMERTGGIGDSRP [L9F]	4.44
FCADNPSEMPPPMERTGGIGDSRP [L9M]	4.34
FCADNPSERPPPMERTGGIGDSRP [L9R]	4.32
GCADNPSELPPPMERTGGIGDSRP [F1G]	5.33
KCADNPSELPPPMERTGGIGDSRP [F1K]	4.86
NCADNPSELPPPMERTGGIGDSRP [F1N]	5.58
HCADNPSELPPPMERTGGIGDSRP [F1H]	5.25
MCADNPSELPPPMERTGGIGDSRP [F1M]	3.45
ICADNPSELPPPMERTGGIGDSRP [F1I]	5.05
WCADNPSELPPPMERTGGIGDSRP [F1W]	4.26
TCADNPSELPPPMERTGGIGDSRP [F1T]	4.99
VCADNPSELPPPMERTGGIGDSRP [F1V]	5.18
ECADNPSELPPPMERTGGIGDSRP [F1E]	5.12
PCADNPSELPPPMERTGGIGDSRP [F1P]	5.44
SCADNPSELPPPMERTGGIGDSRP [F1S]	4.94
CCADNPSELPPPMERTGGIGDSRP [F1C]	3.99
ACADNPSELPPPMERTGGIGDSRP [F1A]	5.49
LCADNPSELPPPMERTGGIGDSRP [F1L]	4.63
QCADNPSELPPPMERTGGIGDSRP [F1Q]	4.83

Variant	protein stability index
DCADNPSELPPPMERTGGIGDSRP [F1D]	5.43
RCADNPSELPPPMERTGGIGDSRP [F1R]	4.68
YCADNPSELPPPMERTGGIGDSRP [F1Y]	4.89
FCADKPSELPPPMERTGGIGDSRP [N5K]	4.29
FCADGPSELPPPMERTGGIGDSRP [N5G]	4.46
FCADFPSELPPPMERTGGIGDSRP [N5F]	2.65
FCADVPSELPPPMERTGGIGDSRP [N5V]	4.58
FCADSPSELPPPMERTGGIGDSRP [N5S]	4.78
FCADAPSELPPPMERTGGIGDSRP [N5A]	4.31
FCADHPSELPPPMERTGGIGDSRP [N5H]	3.81
FCADQPSELPPPMERTGGIGDSRP [N5Q]	4.45
FCADYPSELPPPMERTGGIGDSRP [N5Y]	3.62
FCADWPSELPPPMERTGGIGDSRP [N5W]	3.23
FCADMPSELPPPMERTGGIGDSRP [N5M]	4.57
FCADIPSELPPPMERTGGIGDSRP [N5I]	4.21
FCADLPSELPPPMERTGGIGDSRP [N5L]	3.32
FCADEPSELPPPMERTGGIGDSRP [N5E]	4.8
FCADDPSELPPPMERTGGIGDSRP [N5D]	4.92
FCADTPSELPPPMERTGGIGDSRP [N5T]	4.42

Variants of: B2
Assay: as above
Conditions: c terminus: a fixed tail appended

Variant	protein stability index
FMPAMQFSIPPWRYDAEVVAIAMK [Q23M]	3.29
FMPAMQFSIPPWRYDAEVVAIANK [Q23N]	1.85
FMPAMQFSIPPWRYDAEVVAIAPK [Q23P]	1.99
FMPAMQFSIPPWRYDAEVVAIAHK [Q23H]	1.66
FMPAMQFSIPPWRYDAEVVAIAFK [Q23F]	1.35
FMPAMQFSIPPWRYDAEVVAIAGK [Q23G]	1.78
FMPAMQFSIPPWRYDAEVVAIAAK [Q23A]	2.23
FMPAMQFSIPPWRYDAEVVAIADK [Q23D]	2.69
FMPAMQFSIPPWRYDAEVVAIATK [Q23T]	1.92
FMPAMQFSIPPWRYDAEVVAIAYK [Q23Y]	1.3
FMPAMQFSIPPWRYDAEVVAIAKK [Q23K]	2.2
FMPAMQFSIPPWRYDAEVVAIASK [Q23S]	1.52
FMPAMQFSIPPWRYDAEVVAIAWK [Q23W]	2.74
FMPAMQFSIPPWRYDAEVVAIVQK [A22V]	2.01
FMPAMQFSIPPWRYDAEVVAIYQK [A22Y]	1.23
FMPAMQFSIPPWRYDAEVVAIAQM [K24M]	1.33

Variant	protein stability index
FMPAMQFSIPPWRYDAEVVAIAQV [K24V]	2.36
FMPAMQFSIPPWRYDAEVVAIAQT [K24T]	1.63
FMPAMQFSIPPWRYDAEVVAIAQF [K24F]	2
FMPAMQFSIPPWRYDAEVVAIAQE [K24E]	1.82
FMPAMQFSIPPWRYDAEVVAIAQL [K24L]	2.62
FMPAMQFSIPPWRYDAEVVAIAQA [K24A]	2.31
FMPAMQFSIPPWRYDAEVVAIAQH [K24H]	2.54
FMPAMQFSIPPWRYDAEVVAIAQQ [K24Q]	1.86
FMPAMQFSIPPWRYDAEVVAIAQP [K24P]	2.01
FMPAMQFSIPPWRYDAEVVAIAQC [K24C]	1.61
FMPAMQFSIPPWRYDAEVVAIAQD [K24D]	1.82
FMPAMQFSIPPWRYDAEVVAIAQG [K24G]	1.33
FMPAMQFSIPPWRYDAEVVAIAQS [K24S]	1.68
FMPAMQFSIPPWRYDAEVVAIAQN [K24N]	2.58
FMPAMQFSIPPWRYDAEVVAIAQR [K24R]	1.67
